{"source": "patent US12286661B2", "about": "“Methods for making high intensity sweeteners” (Firmenich Incorporated, priority 2018, dated 2025)", "molecules": {"B1": {"name": "SEQ ID NO. 1062/1063: glycosyltransferase (DNA/protein SEQ ID NO) producing mogroside I from mogrol (protein, listed as Barbarea vulgaris)", "chain": "MASITNHKSDPLHFVLFPFMAQGHMIPMVDIARLLAQRGLTITIVTTPHNASRFKNVLNRAIESGLPINILHVKLPYQEVGLPEGLENIDCFDSMEHMIPFFKGVNMVEESVQKLFEEMSPRPSCIISDFCLPYTSKVAKKFNIPKILFHGMCCLCLLCMHVLRKNPKILENLKSDKEHFVVPYFPDKIELTRPQVPMDTYVPGELKEFMEDLVEADKTSYGVIVNTFQELEPAYVKDYKETRSGKAWSVGPVALCNKARIDKAERGNKSDIDQDECLKWLDSKEERSVLYVCLGSICNLPLAQLKELGLGLEESTRPFIWVIRGWDKNKQLVEWFSESGFEERIKDRGLLIKGWSPQMLILSHQSVGGFLTHCGWNSTLEGITAGLPLLTWPLFADQFCNEKLVVQVLNSGVRAGVEQPMKWGEEEKIGVLVDKEGVKKAVEELMGESDEANERRRRAKELGELAHKAVEEGGSSHSNITFLLQDIMQLAQSNN"}, "B2": {"name": "SEQ ID NO. 1068/1069: glycosyltransferase (DNA/protein SEQ ID NO) producing mogroside I from mogrol (protein, listed as Barbarea vulgaris)", "chain": "MVSEITHKSYPLHFVLFPFMAQGHMIPMVDIARLLAQRGVKITIVTTPHNAARFKNVLSRAIESGLPISIVQVKLPSQEAGLPEGNETLDSLVSMELMIHFLKAVNMLEEPVQKLFEEMSPQPSCIISDFCLPYTSKIAKKFNIPKILFHGMCCFCLLCMHILRKNREIVENLKSDKEHFVVPYFPDRVEFTRPQVPVATYVPGDWHEITEDMVEADKTSYGVIVNTYQELEPAYANDYKEARSGKAWTIGPVSLCNKVGADKAERGNKADIDQDECLKWLNSKEEGSVLYVCLGSICNLPLSQLKELGLGLEESQRPFIWVIRGWEKNKELHEWFSESGFEERIKDRGLLIKGWAPQMLILSHHSVGGFLTHCGWNSTLEGLTAGLPLLTWPLFADQFCNEKLAVQVLKAGVSAGVDQPMKWGEEEKIGVLVDKEGVKKAVEELMGESDDAKEIRRRAKELGELAHKAVEEGGSSHSNITSLLEDIMQLAQSNN"}, "B3": {"name": "SEQ ID NO. 1064/1065: glycosyltransferase (DNA/protein SEQ ID NO) producing mogroside I from mogrol (protein, listed as Barbarea vulgaris)", "chain": "MASAKLHQFHPSLHFVLFPFMAQGHMIPMIDIARLLAQRGVTITIVTTLHNSARFRNVLSRAIESGLPINLVHVKFPYQEAGLPEGQENIDSLDSKELTVPFFKAVNMLEEPVMKLMEEMKPRPSCLISDLCLPYTSKIAKKFNIPKIVFHGMGCFCLLCMHVLRRNLEILQNLKSDKEYFWIPNFPDRVEFTKPQVPVRINASGDWKVFLDEMVKAEETSYGVIVNTFQELEPAYVKDFQEARAGKVWSIGPVSLCNKIEADKAERGNKAAIDQDECLKWLDSKEGGSVLYVCLGSICNLPLVQLIELGLGLEESQRPFIWVIRGWEKYNELSEWISESGFEERVKDRGLLIRGWAPQVLILSHPSVGGFLTHCGWNSTLEGITSGVPLLTLPLFGDQFCNQKLIVQVLKVGVSAGVEEVMGWGEEEKIGVLVDKERVKKTVEEVMGESDDAKERRRRVKELGKLAHKAVEEGGSSHSNITLFLQDMCQLQSVGIY"}, "B4": {"name": "SEQ ID NO. 1058/1059: glycosyltransferase (DNA/protein SEQ ID NO) producing mogroside I from mogrol (protein, listed as Barbarea vulgaris)", "chain": "MASETTHQFHSPLHFVLFPFMAQGHMIPMVDIARILAQRGVTITIVTTPHNAARFKNVLSRAIQSGLPINLVQAKFPSQESGSLEGHENLDLLDSLGASLTFFKATNMFEKPVEKLLKEIQPRPSCIIGDMCLPYTNRIAKNLGIPKIIFHGMCCFNLLCMHIMRQNYEFLETIDSEKEYFPIPNFPERAEFTKSQLPMITYAGEFKEFLDEVTEGDNTSYGVIVNTFEELEPAYVRDYKKVKAGKVWSIGPVSLCNKVGEDKAERGNKAAIDQDECIKWLDSKEEGSVLYVCLGSICNLPLSQLKELGLGLEESQRPFIWVIRGWEKYNELAEWISESGFKERIKERGLLIRGWSPQMLILSHPAVGGFLTHCGWNSTLEGITSGVPLLTWPLFGDQFCNEKLVVQVLKVGVRSGVEESMKWGQEENIGVLVDKEGVKKAVEEVMGESDDAKERRRRVKELGQLAHKAVEEGGSSHSNITSLLQDIRQLQSKK"}, "B5": {"name": "SEQ ID NO. 1066/1067: glycosyltransferase (DNA/protein SEQ ID NO) producing mogroside I from mogrol (protein, listed as Barbarea vulgaris)", "chain": "MASITNHKSDPLHFVLFPFMAQGHMIPMVDIARLLAQRGLTITIVTTPHNASRFKNVLNRAIESGLPINILHVKLPYQEVGLPEGLENIDCFDSMEHMIPFFKGVNMVEESVQKLFEEMSPRPSCIISDFCLPYTSKVAKKFNIPKILFHGMCCLCLLCMHVLRKNPKILENLKSDKEHFVVPYFPDKIELTRPQVPMDTYVPGELKEFMEDLVEADKTSYGVIVNTFQELEPAYVKDYKETRSGKAWSVGPVALCNKARIDKAERGNKSDIDQDECLKWLDSKEERSVLYVCLGSICNLPLAQLKELGLGLEESTRPFIWVIRGWDKNKQLVEWFSESGFEERIKDRGLLIKGWSPQMLILSHQSVGGFLTHCGWNSTLEGITAGLPLLTWPLFADQFCNEKLVVQVLNSGVRAGVEQPMKWGEEEKIGVLVDKEGVKKAVEELMGESDEANERRRRAKELGELAHKAVEEGGSSHSNITFLLQDIMQLAQPITEPSFLVQSWHYKKALLINLLQRTGHYQSK"}, "B6": {"name": "SEQ ID NO. 1050/1051: glycosyltransferase (DNA/protein SEQ ID NO) producing mogroside I from mogrol (protein, listed as Bacillus licheniformis)", "chain": "MRHKHIAIFNIPAHGHINPTLALTASLVKRGYRVTYPVTDEFVKAVEETGAEPLNYRSTLNIDPQQIRELMKNKKDMSQAPLMFIKEMEEVLPQLEALYENDKPDLILFDFMAMAGKLLAEKFGIEAVRLCSTYAQNEHFTFRSISEEFKIELTPEQEDALKNSNLPSFNFEDMFEPAKLNIVFMPRAFQPYGETFDERFSFVGPSLAKRKFQEKETPIISDSGRPVMLISLGTAFNAWPEFYHMCIEAFRDTKWQVIMAVGTTIDPESFDDIPENFSIHQRVPQLEILKKAELFITHGGMNSTMEGLNAGVPLVAVPQMPEQEITARRVEELGLGKHLQPEDTTAASLREAVSQTDGDPHVLKRIQDMQKHIKQAGGAEKAADEIEAFLAPAGVK"}, "B7": {"name": "SEQ ID NO. 1070/1071: glycosyltransferase (DNA/protein SEQ ID NO) producing mogroside I from mogrol (protein, listed as Barbarea vulgaris)", "chain": "MVSEITHKSYPLHFVLFPFMAQGHMIPMVDIARLLAQRGVKITIVTTPHNAARFENVLNRAIESGLPISIVQVKLPSQEAGLPEGNETFDSLVSMELLVPFFKSVNMLEEPVQKLFEEMSPQPSCIISDFCLPYTSKIAKKFNIPKILFHGMCCFCLLCMHVLRKNHEIVENLKSDKEHFVVPYFPDRVEFTRPQVPVATYVPGDWHEITGDMVEADKTSYGVIVNTCQELEPAYANDYKEARSGKAWTIGPVSLCNKVGADKAERGNKADIDQDECLKWLNSKEEGSVLYVCLGSICNLPLSQLKELGLGLEESQRPFIWVIRGWEKNKELLEWFSESGFEERIKDRGLLIKGWAPQMLILSHHSVGGFLTHCGWNSTLEGLTAGLPLLTWPLFADQFCNEKLAVQVLKAGVSAGVDQPMKWGEEEKIGVLVDKEGVKKAVEELMGESDDAKEIRRRAKELGELAHKAVEEGGSSHSNITSLLEDIMQLAQSNN"}, "B8": {"name": "SEQ ID NO. 1060/1061: glycosyltransferase (DNA/protein SEQ ID NO) producing mogroside I from mogrol (protein, listed as Barbarea vulgaris)", "chain": "MASESCHHSHCPLHFVLFPFMAQGHMIPMVDIARLLALRGATITIVTTPHNATRFNNLLSRAIESDLSINIVHVNFPYQEAGLSEGQENVDLLESMGLMVPFLKAVNMLEEPVMKLMEEMKPRPSCLISDFCLHYTSKITKKFNIPKIVFHGMGCFCLLCMHVLRRNIEILKNLKSDKEYFLVPSFPDIVEFTKPQVPVETNASGDWKEFLEAMVEAEDTSYGVIVNTFQELEPAYVKDYKEARAGKVWSIGPVSLCNKIEADKAERGNKAAIDQEECLKWLDSKEEGSVLYVCLGSICNLPLAQLKELGIGLEESQRPFIWVIRGWEKYNELSEWMLESGFEERVKDRGLLIKGWSPQMLVLSHPSVGGFLTHCGWNSTLEGITSGVPLLTWPLFADQFCNEKLVVQVLKVGVRAGVEDPMSWGEEEKVGVLLDKEGVKKAVEELMGESDDAKERRKRVKELGELAHKAVEEGGSSHSNITLFLQDISQYKSVGTF"}}, "data": [{"test_system": "mogrol", "experiment": "Mogroside IA and/or IE production from mogrol by glycosyltransferases expressed in S. cerevisiae, LCMS", "format": "cell-based", "conditions": "10 μM mogrol, 2-4 days at 30° C.; identified by LCMS", "from_the_text": "DNA was obtained through gene synthesis either through Genescript, IDT, or Genewiz. For some of the cucurbitadienol synthases, cDNA or genomic DNA was obtained through 10-60 day old seedlings followed by PCR amplification using specific and degenerate primers. DNA was cloned through standard molecular biology techniques or through yeast gap repair cloning (Joska et al., 2014) into one of the following overexpression vectors: pESC-Ura, pESC-His, or pESC-LEU. Gene expression was regulated by one of the following promoters; Gall, Gal10, Tef1, or GDS. Yeast transformation was performed using Zymo Yeast Transformation Kit II. Yeast strains were grown in standard media (YPD or SC) containing the appropriate selection with 2% glucose or 2% galactose for induction of heterologous genes. Yeast strains were grown in shake flask or 96 well plates at 30° ° C., 140-250 rpm. When indicated, lanosterol synthase inhibitor, Ro 48-8071 (Cayman Chemicals) was added (50 ug/ml). Yeast samples producing mogrol precursors, mogrol and mogrosides were processed through one of the following: • Cucurbitadienol and 11-OH Cucurbitadienol: Samples cell pellets were lysed (Yeast Buster) followed by ethyl acetate extraction, drying, and resuspension in methanol. • ·Mogrol and Mogrosides: Samples cell pellets were lysed in 50% ETOH, incubated at 80° C. for 30 min, filtered, dried and resuspended in MeOH for LCMS screening.\nFor analyzing Mogroside IIIE & Compound 1, the LCMS method included the use of Fluoro-phenyl 2.1×100 mm column, gradient 15 to 30% B for 6 minutes, at flow rate of 0.55 ml/min. For analyzing yeast production of mogroside I during enzyme screening, the LCMS method used a Phenomenex Kinetex Polar C18, 4.6×100 mm, 2.6 μm column, and a gradient of 25% to 55% B over 3 minutes, and 100% B at 3.5 minutes with a flow rate of 1.5 ml/min. Detection by ESI source negative mode single ion monitoring of 683.4 for mogroside I and 799.4 for mogroside II.\nVarious glycosyltransferase proteins were expressed in S. cerevisiae grown in the presence of 10 μM mogrol for 2-4 days at 30° C., 140-250 rpm in either shake flask or 96 well plates. Glycosyltransferases leading to production of Mogroside IA (glycosylation of C24-OH position) and/or Mogroside IE (glycosylation of C3-OH position) are provided in Table 6. DNA and protein sequences for the enzymes are provided in SEQ IDs 1050-1071 (see Table 1).", "values": [{"molecule": "B1", "Mogroside IA": 1816000, "Mogroside IE": "not detected"}, {"molecule": "B2", "Mogroside IA": 1315000, "Mogroside IE": "not detected"}, {"molecule": "B3", "Mogroside IA": 76330, "Mogroside IE": 13290}, {"molecule": "B4", "Mogroside IA": 261900, "Mogroside IE": 104300}, {"molecule": "B5", "Mogroside IA": 562100, "Mogroside IE": "not detected"}, {"molecule": "B6", "Mogroside IA": 2700609, "Mogroside IE": "not detected"}, {"molecule": "B7", "Mogroside IA": 1764000, "Mogroside IE": "not detected"}, {"molecule": "B8", "Mogroside IA": 696200, "Mogroside IE": "not detected"}]}]}
